The record followed here is PMC4003243 (The Journal of Cell Biology, 2014).

Where no end group is shown, it is not given here.

For this test, the target named is His-tagged talin head (1–406 aa) (human, UniProt Q9Y490 1-406). Briefly: BLI. (In general: BLI is a label-free optical method that tracks binding on a fibre tip over time.)
Chain of His-tagged talin head (1–406 aa) (Q9Y490 1-406): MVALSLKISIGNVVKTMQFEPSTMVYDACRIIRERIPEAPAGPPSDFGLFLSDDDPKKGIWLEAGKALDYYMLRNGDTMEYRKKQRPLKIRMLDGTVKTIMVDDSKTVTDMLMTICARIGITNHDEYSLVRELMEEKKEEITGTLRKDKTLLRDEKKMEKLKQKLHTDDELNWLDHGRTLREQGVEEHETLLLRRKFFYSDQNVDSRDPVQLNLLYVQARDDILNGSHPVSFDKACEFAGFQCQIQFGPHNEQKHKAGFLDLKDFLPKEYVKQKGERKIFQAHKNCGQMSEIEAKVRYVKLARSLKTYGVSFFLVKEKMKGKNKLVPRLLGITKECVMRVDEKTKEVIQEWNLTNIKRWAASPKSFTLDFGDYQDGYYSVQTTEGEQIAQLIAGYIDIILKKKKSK

B1: GST–β3-tail, β3-VE chimera (domain or fragment, mouse, UniProt O54890 741-787, looked up)
chain: KLLITIHDRKEFAKFEEERARAKWVENPLYKEATSTFTNITYRGT
modifications: also: GST fusion
With B1, the “fold higher affinity over wild-type β3-tail” value is approximately 20 fold.

B2: GST–β3-tail (716–762 aa), wild type (domain or fragment, mouse, UniProt O54890 741-787, looked up)
chain: KLLITIHDRKEFAKFEEERARAKWDTANNPLYKEATSTFTNITYRGT
modifications: also: GST fusion
For the molecule B2, the binding result was “binds”.
